Test [1] addresses mouse somatostatin receptor SSTR2 (mouse). The experiment in a line: radioligand binding to CHO cells transfected with mouse SSTR2, gamma counting.
Test [2] addresses human somatostatin receptor SSTR1 (human). Put plainly: radioligand binding to CHO cells transfected with human SSTR1, gamma counting.
Test [3] shares this target. Put plainly: radioligand binding to CHO cells transfected with human SSTR1 in the presence of 1 µM somatostatin-14.
Test [4] concerns the target mouse somatostatin receptor SSTR2 (mouse). The experiment in a line: radioligand binding to CHO cells transfected with mouse SSTR2 in the presence of 1 µM somatostatin-14.

With “[125I]iodo-Tyr11-somatostatin-14 (from UniProt P61278) (peptide)”, the results for the control binding (radiolabeled ligand bound in the absence of inhibitor) in test [1] and in test [2] were 2080 cpm and 1420 cpm, respectively. Also, the non-specific binding (radiolabeled ligand bound in the presence of 1 µM somatostatin-14) in test [3] and in test [4] was 225 cpm in each case.

The values are drawn from patent US5723299.
